Assay results reported in patent US20230095569A1 (ANTENGENE BIOLOGICS, published 2023).
Where a chain is given by its changes, count along the chain named.

B1: chAb29 (antibody, V domains shown)
VH: EVLLQQSGPELVKPGASVKIPCKASGYTLTDHSMDWVKQSHGKSLEWIGNILPNNGGNIYNQKFRGKATLTVDKSSSTAYMELRSLTSEDTAVYNCARGHYGNSFAYWGQGTLVIVS
VL: DIVMTQSPSSLTVRAGEKVTIYCKSSQSLFNSGNQKNYLTWYQQKPGQPPKLLIYWASTRESGVPHRFTGSGSGTDFTLTISSMQADDLATYYCQNGYFFPYTFGGGTKLEIK
B2: chAb08 (antibody, V domains shown)
VH: QVQLQQPGAELVKPGASVKLSCKASGYTFTSYLLHWVKQRPGQGLEWIGMIHPNGGSTNYNEKFKTKATLTVDKSSSTAYMQLSSLTSEDSAVYYCAPVYFGNSFAYWGQGTLVTVSA
VL: DIVMTQSPSSLTVTAGEKVTMSCKSSQSLLNSGNQKNYLTWYQQKPGQPPKLLIYWASTRESGVPDRFTGSGSGTDFTLTISSVQAEDLAVYYCQNDYYYPFTFGSGTKLEKK
B3: chAb06 (antibody, V domains shown)
VH: EVQLVASGGGLVKPGGSLKLSCAASGITFRSYAMSWVRQTPEKRLEWVATITDGGSYIFYPDNVKGRFTISGDHAKNNLYLQMSHLKSEDTALYFCVRLYYGNSFAYWGQGTLVTVSA
VL: B2 VL with M21L, S22N, L30F, I81F, D97A, Y99I, K112I
B4: chAb25 (antibody, V domains shown)
VH: EAQLQQSGPELVKPGASVKIFCKASGYTFTDYYINWVKQSHGKSLEWIGDINPNNGGTTYNQKFKGKATLTVDKSSSTASMELRRLTSEDSSVYYCARRDAMDYWGQGTSVTVSS
VL: DIVMTQSQKFMSTTVGDRVSITCTASQNVGPAVAWYQQKPGQSPKLLIYSASRRFTGVPDRFTGSGSGTVFTLTINNVQSEDLADYFCQQYISYPLTFGAGTKLELK
B5: chAb11 (antibody, V domains shown)
VH: EVMLVESGGDLVKPGGSLKLSCAASGFTFSRYTMSWVRQTPEKRLEWVATVSVGSGNTYYLDSVKGRFTISRDNAKNTLFLQMNSLRSEDTALYYCTRLGQTQRNAVDYWGQGTSVTVSS
VL: DIVMTQSPSFLSVSAGEKVTMSCKSSQSLFNGGNQKNYLAWYQQKPGQPPKLLIYGASTRDSGVPDRFTGSGSGTDFTLTISNVQAEDLAIYFCQNDHSFPLTFGAGTKLELK
B6: chAb24 (antibody, V domains shown)
VH: EVKLVESGGGLVKPGGSLKLSCAGSGFTFSSYTMSWVRQTPEKRLEWVATITIGVNIYYLDSVKGRFTISRDNAKNTLYLQMNSLRSEDTALYYCTRLGQTQRNAMDYWGQGTSVTVSS
VL: DIVMTQSPTSLSVSAGEKVTMTCKSSQSLFNSGNQKNYLAWYQEKPGQPPKLLIYGASTRESGVPDRFTGSGSGTDFTLTISSVQAEDLAVYYCQNVHFYPFTFGAGTKLEL
B7: chAb18 (antibody, V domains shown)
VH: QVQLKESGPGLVAPSQSLSITCTVSGFSLTTYGINWVRQPPGKGLEWLGVIWGDGSTNYHSALISRLSISKDNSKSQVFLKLNSLQTDDTATYYCVKSSYYGNAMDYWGQGTSVTVSS
VL: DIVMTQSPSSLTVTAGETVTMSCKSSQSLLNSGNQKNYLTWYQQKPGQPPKLLIYWASTRESGVPDRFTGSGSGTDFTLTISSVQAEDLAVYYCQNVYSYPFTFGSGTKLEI
B8: chAb31 (antibody, V domains shown)
VH: QIQLAQSGPELKKPGETVKISCKASGYSFTNYGMNWVKQAPGKGLKWMGWINTYSGETKYADDFKGRFDFSLETSARTAYLQIKNLKIEDTATYFCARRDAMDYWGQGTSVTVSS
VL: DIVMTQAAPSVPVTPGESVSISCRSSKSLLNSNGNTYLYWFLQRPGQSPQLLIYRMSNLASGVPDRFSGSGSGTAFTLRISRVEAEDVGVYYCMQHLEFPFTFGSGTKLEIK
B9: IMAB362 (Zolbetuximab) (antibody, V domains shown)
VH: QVQLQQPGAELVRPGASVKLSCKASGYTFTSYWINWVKQRPGQGLEWIGNIYPSDSYTNYNQKFKDKATLTVDKSSSTAYMQLSSPTSEDSAVYYCTRSWRGNSFDYWGQGTTLTVSS
VL: DIVMTQSPSSLTVTAGEKVTMSCKSSQSLLNSGNQKNYLTWYQQKPGQPPKLLIYWASTRESGVPDRFTGSGSGTDFTLTISSVQAEDLAVYYCQNDYSYPFTFGSGTKLEIKR
B10: chAb30 (antibody, V domains shown)
VH: QVQLKESGPGLVAPSQSLSITCTVSGFSLTKFGVNWVRQPPGKGLEWLGAIWGDGSTNYHSALISRLSINKDNSKSQVFLKLSSLQNVDTATYYCAKSGYGNAMDYWGHGTSVTVSS
VL: DIVMTQSPSSLTVTTGEKVTLNCKSSQSLLNSGNLKNYLTWYQQRPGQPPKLLIYWASTRESGVPYRFTGSGSGTDFTLTISNVQAEDLAIYYCQNDYFFPFTFGSGTKLEIK

Molecular target: T1, human Claudin18.2 (CLDN18.2) (human, UniProt P56856 1-261)
T1 construct: the cell line is named under assay; also called human Claudine18.2; hClaudin18.2
Assay: FACS on CHOK1-18.2 cells, antibody at 50 µg/ml

Row | MAX MFI | Binder
1 | 63400 | B1
2 | 71900 | B2
3 | 92800 | B3
4 | 56100 | B4
5 | 85600 | B5
6 | 64500 | B6
7 | 60200 | B7
8 | 59900 | B8
9 | 49600 | B9
10 | 65000 | B10

Molecular target: T1, human Claudin18.2 (CLDN18.2)
Assay: cell-based or functional assay

Row | CDC EC50 | Binder | Max CDC induced tumor cell killing (% of control)
11 | 12.7 nM | B1 | 67.8 % of control
12 | 13.6 nM | B2 | 68.4 % of control
13 | 9.72 nM | B3 | 75.4 % of control
14 | 25.4 nM | B4 | 72.9 % of control
15 | 19.4 nM | B5 | 71.2 % of control
16 | 12.8 nM | B6 | 70.7 % of control
17 | 35 nM | B7 | 75.3 % of control
18 | 37.9 nM | B8 | 60.7 % of control
19 | 809 nM | B9 | 52.5 % of control
20 | 23.2 nM | B10 | 76.1 % of control

Molecular target: T1, human Claudin18.2 (CLDN18.2)
Assay: cell-based or functional assay
Remark: another data set of the same source

Row | Max inhibition % | Binder | IC50 of indirect ADC cytotoxicity
21 | 93.5% | B1 | 0.91 nM
22 | 92.5% | B2 | 0.45 nM
23 | 91.8% | B3 | 0.61 nM
24 | 92.9% | B4 | 0.86 nM
25 | 93.5% | B5 | 0.87 nM
26 | 92.7% | B6 | 0.85 nM
27 | 90.7% | B7 | 1.58 nM
28 | 91.7% | B8 | 2.35 nM
29 | 81.8% | B9 | 4.75 nM
30 | 92.4% | B10 | 1.58 nM

Molecular target: T1, human Claudin18.2 (CLDN18.2)
Assay: FACS on GAXC031 cells, antibody at 50 µg/ml

Row | MAX MFI | Binder
31 | 5640 | B1
32 | 5830 | B2
33 | 5460 | B3
34 | 3020 | B4
35 | 6420 | B5
36 | 5860 | B6
37 | 3690 | B7
38 | 3770 | B8
39 | 742 | B9
40 | 4460 | B10

Molecular target: T1, human Claudin18.2 (CLDN18.2)
Assay: FACS on GAXC031 cells

Row | EC50 | Binder
41 | 36.1 nM | B9

Molecular target: T1, human Claudin18.2 (CLDN18.2)
Assay: FACS on CHOK1-18.2 cells

Row | EC50 | Binder
42 | 6.63 nM | B1
43 | 3.6 nM | B2
44 | 5.42 nM | B3
45 | 8.27 nM | B4
46 | 3.63 nM | B5
47 | 4.99 nM | B6
48 | 7.71 nM | B7
49 | 5.17 nM | B8
50 | 5.69 nM | B9
51 | 9.76 nM | B10

Molecular target: T1, human Claudin18.2 (CLDN18.2)
Assay: cell-based or functional assay
Remark: another data set of the same source

Row | ADCC EC50 | Binder | Max tumor cell killing (% of control), ADCC
52 | 5.27 nM | B1 | 60.9 % of control
53 | 2.22 nM | B2 | 69.3 % of control
54 | 3.01 nM | B3 | 40.6 % of control
55 | 8.38 nM | B4 | 76.8 % of control
56 | 3.7 nM | B5 | 54.7 % of control
57 | 4.46 nM | B6 | 66.6 % of control
58 | 5.07 nM | B7 | 61.5 % of control
59 | 8.16 nM | B8 | 78.8 % of control
60 | 36.1 nM | B9 | 30.7 % of control
61 | 7.44 nM | B10 | 80.2 % of control
